# Measured values taken from article PMC11973211, “Mechanistic insights into the structure-based design of a CspZ-targeting Lyme disease vaccine” (Nature Communications, 2025).
# Biological target: T1, human complement factor H (human, UniProt P08603 19-1231)
# T1 construct: complement factor H, human; used at 500 nM in the ELISA; also called FH; human FH
# Assay: ELISA; 1 µg histidine-tagged CspZ coated on wells, blocked with 5% BSA in PBS; PBS (control), irrelevant human IgG, #1139c or #1193c (0.4-50 nM) added, then 500 nM human FH; bound FH detected with sheep anti-human FH and donkey anti-sheep HRP
# Conditions: both partners purified
# T1 sequence (P08603 19-1231): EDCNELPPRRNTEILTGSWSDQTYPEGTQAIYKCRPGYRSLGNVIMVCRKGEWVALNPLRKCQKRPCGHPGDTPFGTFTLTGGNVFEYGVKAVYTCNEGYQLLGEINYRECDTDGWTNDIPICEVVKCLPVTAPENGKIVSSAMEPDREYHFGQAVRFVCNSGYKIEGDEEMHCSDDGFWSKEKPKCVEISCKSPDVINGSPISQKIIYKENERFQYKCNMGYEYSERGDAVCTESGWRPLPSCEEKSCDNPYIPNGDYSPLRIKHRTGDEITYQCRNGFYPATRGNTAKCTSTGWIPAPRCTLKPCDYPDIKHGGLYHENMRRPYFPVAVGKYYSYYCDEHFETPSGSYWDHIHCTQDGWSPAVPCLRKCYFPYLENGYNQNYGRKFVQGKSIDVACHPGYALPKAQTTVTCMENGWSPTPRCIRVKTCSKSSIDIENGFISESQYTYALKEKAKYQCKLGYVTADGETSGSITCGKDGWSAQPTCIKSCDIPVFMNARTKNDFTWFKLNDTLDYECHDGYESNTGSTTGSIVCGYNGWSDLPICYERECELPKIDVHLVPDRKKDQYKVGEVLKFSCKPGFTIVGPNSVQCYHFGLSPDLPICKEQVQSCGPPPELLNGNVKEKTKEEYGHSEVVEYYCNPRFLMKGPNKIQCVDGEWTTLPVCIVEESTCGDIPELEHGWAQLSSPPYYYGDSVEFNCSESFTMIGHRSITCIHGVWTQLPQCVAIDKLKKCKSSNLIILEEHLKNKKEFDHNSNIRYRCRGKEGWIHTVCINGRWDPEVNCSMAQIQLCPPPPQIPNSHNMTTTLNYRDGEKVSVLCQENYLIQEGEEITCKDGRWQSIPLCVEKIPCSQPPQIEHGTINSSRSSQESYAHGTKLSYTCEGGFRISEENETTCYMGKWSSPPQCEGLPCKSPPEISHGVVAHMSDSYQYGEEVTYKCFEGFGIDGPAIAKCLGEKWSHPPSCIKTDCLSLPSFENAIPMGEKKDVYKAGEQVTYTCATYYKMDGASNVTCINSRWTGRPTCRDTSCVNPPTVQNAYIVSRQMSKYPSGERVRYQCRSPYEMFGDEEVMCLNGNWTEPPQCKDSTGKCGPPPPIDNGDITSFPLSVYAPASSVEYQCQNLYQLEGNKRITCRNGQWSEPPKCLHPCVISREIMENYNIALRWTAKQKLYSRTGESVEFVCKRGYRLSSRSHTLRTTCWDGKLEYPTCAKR
binder,measurement,value
"histidine-tagged CspZ (B. burgdorferi B31 CspZ) (natural protein, CspZ (BbCRASP-2), outer surface protein of Borrelia burgdorferi strain B31; codon-optimised synthetic DNA in pET28a (BamHI/SalI); this is a surmise; also called BbCRASP-2) RLNQRNINELKIFVEKAKYYSIKLDAIYNECTGAYNDIMTYSEGTFSDQSKVNQAISIFKKDNKIVNKFKELEKIIEEYKPMFLSKLIDDFAIELDQAVDNDVSNARHVADSYKKLRKSVVLAYIESFDVISSKFVDSKFVEASKKFVNKAKEFVEENDLIALECIVKTIGDMVNDREINSRSRYNNFYKKEADFLGAAVELEGAYKAIKQTLL",binding result,binds
